Data on eleven molecules can be found in patent US20120121596A1 (published 2012).

First the molecules themselves.
B1: D1.5-103 (phage-displayed Fab clone) (Fab, V domains shown)
VH: EVQLVESGGGLVQPGGSLRLSCAASGFTFTGNWIHWVRQAPGKGLEWVGEISPSGGYTDYADSVKGRFTISADTSKNTAYLQMNSLRAEDTAVYYCARESRVSYEAAMDYWGQGTLVTVSS
VL: DIQMTQSPSSLSASVGDRVTITCRASQALGDSENGYADVAWYQQKPGKAPKLLIYEGSSLYSGVPSRFSGSGSGTDFTLTISSLQPEDFATYYCQQAAPSPYTFGQGTKVEIKR
notes: EGFR/HER3 clone
B2: D1.5-116 (phage-displayed Fab clone) (Fab, V domains shown)
VH: B1 VH
VL: DIQMTQSPSSLSASVGDRVTITCRASQAIASDVAWYQQKPGKAPKLLIYSASFLYSGVPSRFSGSGSGTDFTLTISSLQPEDFATYYCQQSEPEPYTFGQGTKVEIKR
notes: EGFR/HER3 clone
B3: D1.5-115 (phage-displayed Fab clone) (Fab, V domains shown)
VH: B1 VH
VL: B2 VL with A28E, A30F, S31P, F53S, S91A, E92A, E94T
notes: EGFR/HER3 clone
B4: D1.5-122 (phage-displayed Fab clone) (Fab, V domains shown)
VH: B1 VH
VL: B2 VL with A28N, F53S, E92D
notes: EGFR/HER3 clone
B5: D1.5-115 (mIgG2A) (bispecific antibody, V domains shown)
VH: B1 VH
VL: B2 VL with A28E, A30F, S31P, F53S, S91A, E92A, E94T
B6: D1.5-100 (mIgG2A) (bispecific antibody, V domains shown)
VH: B1 VH
VL: B2 VL with A28D, I29L, S31T
notes: also called anti-EGFR/HER3 antibody D1.5-100
B7: D1.5-113 (mIgG2A) (bispecific antibody, V domains shown)
VH: B1 VH
VL: DIQMTQSPSSLSASVGDRVTITCRASQSLLASHDGTPWVAWYQQKPGKAPKLLIYDASYLYSGVPSRFSGSGSGTDFTLTISSLQPEDFATYYCQQSTFAPYTFGQGTKVEIKR
B8: D1.5-103 (mIgG2A) (bispecific antibody, V domains shown)
VH: B1 VH
VL: B1 VL
B9: D1.5-122 (mIgG2A) (bispecific antibody, V domains shown)
VH: B1 VH
VL: B2 VL with A28N, F53S, E92D
B10: D1.5-121 (mIgG2A) (bispecific antibody, V domains shown)
VH: B1 VH
VL: B2 VL with A28D, I29V, A30G, V33L, F53Y, E92D
B11: D1.5-116 (mIgG2A) (bispecific antibody, V domains shown)
VH: B1 VH
VL: B2 VL

Positions count from the first letter of the chain named.

The first test has as its target T1, HER4-ECD-Fc (human, UniProt Q15303 26-651, limits assumed).
T1 construct: extracellular domain
T1 sequence (looked up): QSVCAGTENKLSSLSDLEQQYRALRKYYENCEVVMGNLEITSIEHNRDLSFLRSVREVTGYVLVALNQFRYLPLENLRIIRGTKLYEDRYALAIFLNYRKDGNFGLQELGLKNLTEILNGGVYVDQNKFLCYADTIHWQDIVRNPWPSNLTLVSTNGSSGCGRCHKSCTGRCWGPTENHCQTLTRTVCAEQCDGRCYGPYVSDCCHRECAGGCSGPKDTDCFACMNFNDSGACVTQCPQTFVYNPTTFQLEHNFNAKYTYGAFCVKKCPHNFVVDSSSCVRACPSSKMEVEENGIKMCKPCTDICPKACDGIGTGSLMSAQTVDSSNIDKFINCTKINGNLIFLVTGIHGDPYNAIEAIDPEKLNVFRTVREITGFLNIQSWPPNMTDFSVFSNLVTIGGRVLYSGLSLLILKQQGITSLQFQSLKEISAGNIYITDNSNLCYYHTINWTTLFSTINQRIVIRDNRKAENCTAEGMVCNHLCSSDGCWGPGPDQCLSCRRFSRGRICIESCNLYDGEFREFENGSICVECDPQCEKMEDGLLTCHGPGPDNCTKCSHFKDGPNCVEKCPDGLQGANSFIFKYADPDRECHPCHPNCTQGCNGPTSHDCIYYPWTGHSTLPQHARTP
Briefly: direct phage ELISA, proteins coated at 2 µg/ml, phage-Fab supernatant, OD450.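 Note: specificity test of dual-activity clones, with binding assessed across an antigen panel to check whether each recognises only its cognate target.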 On the technique in general: In an ELISA, binding on a coated surface is turned into a signal by an enzyme label.
Protocol: (§1) To determine if the nine clones with dual activities were specific to their cognate targets, their binding to a panel of antigens in a direct plate ELISA format was evaluated.
(§2) 2 μg/ml of several proteins were coated on immunoplates overnight at 4° C.
Take B1: the binding result is on record as “no binding”.

With B2, the binding result was “no binding”.

On to B3, for which the binding result is on record as “no binding”.

As to B4, the binding result is given as “no binding”.

The target of the next test is T2, HER3-ECD-Fc (human, UniProt P21860 20-643, limits assumed).
T2 construct: extracellular domain; also called HER3-FC; HER3-IgG
Described as above.
Protocol: as §1, §2
In the case of B2, the binding result is reported as “binds”.

As for B3, the binding result is on record as “binds”.

The next test deals with T3, HER2-ECD (human, UniProt P04626 23-652).
T3 construct: extracellular domain
Described as above.
Protocol: as §1, §2
As to B1, the binding result is “no binding”.

As to B2, the binding result is “no binding”.

As to B3, the binding result is on record as “no binding”.

With B4, the binding result was “no binding”.

For a further test, the target named is T4, hEGFR-ECD (human, UniProt P00533 25-645).
T4 construct: extracellular domain
The description is as above.
Protocol: as §1, §2
Turning to B1, the binding result was “binds”.

Turning to B2, the binding result was “binds”.

Turning to B3, the binding result is recorded as “binds”.

B4: the binding result was “binds”.

For the next test, the target named is T5, BSA (bovine, UniProt P02769).
T5 construct: also called bovine serum albumin
T5 sequence (P02769 25-607 limits assumed): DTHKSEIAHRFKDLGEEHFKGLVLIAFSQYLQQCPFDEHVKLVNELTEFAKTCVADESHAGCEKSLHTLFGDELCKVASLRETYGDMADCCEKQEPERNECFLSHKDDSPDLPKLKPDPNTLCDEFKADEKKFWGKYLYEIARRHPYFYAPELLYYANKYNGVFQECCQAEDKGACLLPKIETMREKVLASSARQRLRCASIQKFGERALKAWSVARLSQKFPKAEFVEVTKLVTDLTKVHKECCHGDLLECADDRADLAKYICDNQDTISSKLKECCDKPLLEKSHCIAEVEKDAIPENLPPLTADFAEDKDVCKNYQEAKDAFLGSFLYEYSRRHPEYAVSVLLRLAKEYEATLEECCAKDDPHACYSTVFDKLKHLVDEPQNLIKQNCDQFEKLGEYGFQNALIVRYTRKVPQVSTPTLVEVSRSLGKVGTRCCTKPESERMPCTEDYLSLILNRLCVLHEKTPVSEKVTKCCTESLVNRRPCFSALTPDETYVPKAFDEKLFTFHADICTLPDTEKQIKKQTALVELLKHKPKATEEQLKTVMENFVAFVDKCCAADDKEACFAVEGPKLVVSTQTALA
Described as above.
Protocol: as §1, §2
As for B1, the binding result is on record as “no binding”.

B2: the binding result is “no binding”.

With B3, the binding result is on record as “no binding”.

As to B4, the binding result is “no binding”.

The next test addresses T6, Erbitux.
T6 construct: also called cetuximab; C225; not shown: the constant regions
The test is described as above.
With B1, the binding result is recorded as “no binding”.

With B2, the binding result is given as “no binding”.

Take B3: the binding result is “no binding”.

Another test has as its target T2, HER3-ECD-Fc. Description: competition with 125I-HRG for HER3-ECD-Fc captured on anti-human antibody plates, antibody pre-bound, counts as % of control.
Protocol: Binding assays were performed in Nunc break-apart strip wells. Plates were coated at 4° C. overnight with 100 μl of 5 mg/mL goat anti-human Ab in 50 mM carbonate buffer (pH 9.6). Plates were rinsed twice with wash buffer (PBS/0.005% Tween20) and blocked with 100 μl 1% BSA/PBS for 30 min. Buffer was removed and each well was incubated with 200 ng of HER3-ECD-Fc in 1% BSA/PBS for 1.5 h. […] Plates were rinsed three times and individual wells were counted using a 100 Series Iso Data γ-counter.
In the case of B5, the binding result is listed as “binds”.

B6: the “IC50 (read off the curve)” value was approximately 2 nM.

As to B7, the binding result is “binds”.

For the molecule B8, the “IC50 (read off the curve)” value was approximately 3 nM.

Turning to B9, the “IC50 (read off the curve)” value was approximately 3 nM.

Turning to B10, the binding result is “binds”.

As to B11, the binding result was “binds”.
